B1: KM4097HV3aLV0人源化单克隆抗体 (抗TROP-2单抗阳性对照) (antibody, V domains shown)
VH: QVQLVQSGPEVKKPGASVKVSCKASGYTFTIYWLGWVRQAPGQGLEWMGNIFPGSAYINYNEKFKGKVTITADTSTSTAYMELSSLRSEDTAVYFCAREGSNSGYWGQGTLVTVSS
VL: DIVMTQSPDSLAVSLGERATINCKSSQSLLNSGNQQNYLAWYQQKPGQPPKLLIYGASTRESGVPDRFSGSGSGTDFTLTISSLQAEDVAVYYCQSDHIYPYTFGQGTKLEIKR
notes: IgG (detected with anti-human Fc); also called 阳性对照抗TROP-2单抗
B2: 人源化SP34 (抗CD3单抗阳性对照) (antibody, human IgG1, kappa, V domains shown)
VH: EVQLVESGGGLVQPGGSLRLSCAASGFTFNTYAMNWVRQAPGKGLEWVARIRSKYNNYATYYADSVKDRFTISRDDSKNTLYLQMNSLRAEDTAVYYCVRHGNFGNSYVSWFAYWGQGTLVTVSS
VL: QAVVTQEPSLTVSPGGTVTLTCRSSTGAVTTSNYANWVQQKPGQAPRGLIGGTNKRAPGVPARFSGSLLGGKAALTLSGAQPEDEAEYYCALWYSNLWVFGQGTKVEIKR
notes: Full-length humanised SP34: VH + human IgG1 constant region, VL + human Kappa constant region; also called 阳性对照CD3单抗; 人源化SP34单克隆抗体

Assays:
重组Human-TROP-2-HIS蛋白 = biological target: T1, 重组Human-TROP-2-HIS蛋白 (human, UniProt P09758 27-274, limits assumed); test: ELISA, coated TROP-2-HIS 200 ng/ml, HRP goat anti-human Fc
T1 construct: Bought protein; also called TROP-2-HIS蛋白 (恺佧, TRP-HM121); not shown: His tag
T1 sequence (looked up): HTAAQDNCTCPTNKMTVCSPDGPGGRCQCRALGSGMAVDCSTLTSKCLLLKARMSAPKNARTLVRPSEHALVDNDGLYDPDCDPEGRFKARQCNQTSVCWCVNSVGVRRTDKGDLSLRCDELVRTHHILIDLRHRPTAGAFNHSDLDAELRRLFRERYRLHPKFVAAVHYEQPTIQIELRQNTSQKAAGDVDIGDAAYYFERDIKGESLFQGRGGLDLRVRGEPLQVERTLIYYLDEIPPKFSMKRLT

重组Human-CD3-FC蛋白 = biological target: T2, 重组Human-CD3-FC蛋白 (human); test: ELISA, coated CD3-FC 200 ng/ml, HRP goat anti-human Fab
T2 chain: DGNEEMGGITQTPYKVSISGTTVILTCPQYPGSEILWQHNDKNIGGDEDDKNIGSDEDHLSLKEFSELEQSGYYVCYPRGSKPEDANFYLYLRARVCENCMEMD

| Binder | EC50 (重组Human-TROP-2-HIS蛋白) | EC50 (重组Human-CD3-FC蛋白) |
| --- | --- | --- |
| B1 | 26.1 pM |  |
| B2 |  | 61.8 pM |

— patent CN117126289A (SUNSHINE GUOJIAN PHARMACEUTICAL SHANGHAI CO LTD, dated 2023)
